This test has as its target T1, Flag-RNF185 (wild type, full length human RNF185 with N-terminal Flag tag) (human, UniProt Q96GF1 2-192).
T1 construct: Expressed by transfection in HEK293T cells; co-immunoprecipitation from lysates; For the CFTR co-IP, cells expressing WT RNF185 were treated with MG132 for 5 hours; also called RNF185 WT; Flag-tagged RNF185
T1 sequence: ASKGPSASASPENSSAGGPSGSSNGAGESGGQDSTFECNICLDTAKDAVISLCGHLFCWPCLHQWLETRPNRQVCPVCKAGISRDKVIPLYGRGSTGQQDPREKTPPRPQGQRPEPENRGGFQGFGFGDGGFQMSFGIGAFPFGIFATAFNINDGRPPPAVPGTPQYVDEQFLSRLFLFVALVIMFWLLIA
As to the kind of experiment: Flag co-immunoprecipitation from HEK293T cell lysates.

B1: Ubc7/UBE2G1 (enzyme, UniProt P62253 1-170, looked up)
chain: MTELQSALLLRRQLAELNKNPVEGFSAGLIDDNDLYRWEVLIIGPPDTLYEGGVFKAHLTFPKDYPLRPPKMKFITEIWHPNVDKNGDVCISILHEPGEDKYGYEKPEERWLPIHTVETIMISVISMLADPNGDSPANVDAAKEWREDRNGEFKRKVARCVRKSQETAFE
notes: the construct is not described
Regarding B1, the binding result is on record as “no binding”.
